B1: PGT-126 (antibody, V domains shown)
VH: QPQLQESGPGLVEASETLSLTCTVSGDSTAACDYFWGWVRQPPGKGLEWIGGLSHCAGYYNTGWTYHNPSLKSRLTISLDTPKNQVFLKLNSVTAADTAIYYCARFDGEVLVYHDWPKPAWVDLWGRGTLVTVSS
VL: QSALTQPPSASGSPGQSISISCTGTSNRFVSWYQQHPGKAPKLVIYGVNKRPSGVPDRFSGSKSGNTASLTVSGLQTDDEAVYYCSSLVGNWDVIFGGGTKLTVL
B2: PGT-130 (antibody, V domains shown)
VH: QVQLQESGPGLVKPAETLSLTCSVSGESINTGHYYWGWVRQVPGKGLEWIGHIHYTTAVLHNPSLKSRLTIKIYTLRNQITLRLSNVTAADTAVYHCVRSGGDILYYYEWQKPHWFSPWGPGIHVTVSS
VL: QSALTQPPSASGSLGQSVTISCNGTSSDIGGWNFVSWYQQFPGRAPRLIIFEVNKRPSGVPGRFSGSKSGNSASLTVSGLQSDDEGQYFCSSLFGRWDVVFGGGTKLTVL

Tests used:
[1] = biological target: HIV-1 JR-CSF Env E466A (HIV-1 isolate JR-CSF) (UniProt P20871); assay: cell-based or functional assay
[2] = biological target: HIV-1 JR-CSF Env F468A (HIV-1 isolate JR-CSF) (UniProt P20871); assay: cell-based or functional assay

Row | Binder | Fold IC50 increase relative to wild-type [1] [fold] | Fold IC50 increase relative to wild-type [2] [fold]
1 | B1 | 1.4 | –
2 | B2 | – | 0.4

Reference: patent publication US20250320281A1
